Experiments:
[1] = Static and dynamic light scattering (SLS/DLS) of block co-polypeptides; format: physicochemical; conditions: for ρ: shape factor Rg/Rh
Procedure: Key parameters of interest are the hydrophilicity of the corona-forming block, the hydrophilicity of the core block, the overall length of the co-polypeptide and the ratio of the two blocks. Parameters of evaluation are the size, morphology, stability, and thermoresponsive behavior. All measurements were made in 140 mM NaCl, 10 mM phosphate buffer, 3 mM KCl, pH 7.4 unless otherwise specified. Size was evaluated by the hydrodynamic radios (Rh) and radius of gyration (Rg) by dynamic light scattering (DLS) and static light scattering (SLS) respectively. Rg and Rh can be combined to yield the shape factor ρ=Rg/Rh, which provides a rough indication of the morphology of the scatterer. […] For an elongated scatterer, the shape factor depends upon the aspect ratio. A combination of temperature dependent turbidity and DLS was utilized to determine the phase behavior of the block co-polypeptides. Cryogenic transmission electron microscopy (Cryo-TEM) was utilized to evaluate the morphology and provide crucial insight into the hydration of the core/corona chains. Stability of the assembled nanostructure was determined by a shift in the I1/I3 fluorescent bands of pyrene as described previously.
Static and dynamic light scattering measurements (SLS/DLS) were performed using an ALV/CGS-3 goniometer system (Langen, Germany). Samples for the ALV/CGS-3 goniometer system were prepared at a concentration of 10 μM in PBS and filtered through 0.45 μm Millex-GV filters into a 10 mm disposable borosilicate glass tube (Fischer). Simultaneous SLS and DLS measurements were obtained at 15° C. of the ELP for angles between 30°-150° at 5° increments, with each angle consisting of 3 runs for 15 s. SLS experiments were only conducted for self-assembling block co-polypeptides, since the molecular weight of a single block co-polypeptide chain is already known, and the Rg of a single chain is likely near or below the detection limit of the SLS instrument. The differential refractive index (dn/dc) was determined by measuring the refractive index at different concentrations using an Abbemat 500 refractometer (Anton Paar, Graz, Austria). DLS data were analyzed by fitting the autocorrelation function with a cumulant fit, using the built-in ALV software. Hydrodynamic radius (Rh) was plotted against angle and extrapolated to zero. SLS data were analyzed by partial Zimm plots using ALVSTAT software in order to determine the Rg and molecular weight (MW).

[2] = Cryo-TEM micelle core size, inter-core spacing and aspect ratio; format: physicochemical
Procedure: Using the data from FIG. 18, particularly the longest straight line of an individual particle and a corresponding perpendicular measurement were made to describe the aspect ratio of particles observed.
Cryo-TEM experiments were performed at Duke University's Shared Materials Instrumentation Facility (Durham, N.C.). Lacey holey carbon grids (Ted Pella, Redding, Calif.) were glow discharged in a PELCO EasiGlow Cleaning System (Ted Pella, Redding, Calif.). A 3 μL drop (10 μM RLPn-ELP80) was deposited onto the grid, blotted for 3 s with an offset of −3 mm, and vitrified in liquid ethane using the Vitrobot Mark III (FEI, Eindhoven, Netherlands). Prior to vitrification, the sample chamber was maintained at 15° C. and 100% relative humidity to prevent sample evaporation. Grids were transferred to a Gatan 626 cryoholder (Gatan, Pleasanton, Calif.) and imaged with a FEI Tecnai G2 Twin TEM (FEI, Eindhoven, Netherlands), operating at 80 keV. Feature sizes and spacing distances were measured in ImageJ by manual measurement of at least 25 particles.

B1: RLP60-ELPS80: RLP-ELP block co-polypeptide with Ser guest residue in the corona (protein)
chain: QYPSDGRGQYPSDGRGQYPSDGRGQYPSDGRGQYPSDGRGQYPSDGRGQYPSDGRGQYPSDGRGQYPSDGRGQYPSDGRGQYPSDGRGQYPSDGRGQYPSDGRGQYPSDGRGQYPSDGRGQYPSDGRGQYPSDGRGQYPSDGRGQYPSDGRGQYPSDGRGQYPSDGRGQYPSDGRGQYPSDGRGQYPSDGRGQYPSDGRGQYPSDGRGQYPSDGRGQYPSDGRGQYPSDGRGQYPSDGRGQYPSDGRGQYPSDGRGQYPSDGRGQYPSDGRGQYPSDGRGQYPSDGRGQYPSDGRGQYPSDGRGQYPSDGRGQYPSDGRGQYPSDGRGQYPSDGRGQYPSDGRGQYPSDGRGQYPSDGRGQYPSDGRGQYPSDGRGQYPSDGRGQYPSDGRGQYPSDGRGQYPSDGRGQYPSDGRGQYPSDGRGQYPSDGRGQYPSDGRGQYPSDGRGQYPSDGRGQYPSDGRGQYPSDGRGQYPSDGRGGSGVPGSGVPGSGVPGSGVPGSGVPGSGVPGSGVPGSGVPGSGVPGSGVPGSGVPGSGVPGSGVPGSGVPGSGVPGSGVPGSGVPGSGVPGSGVPGSGVPGSGVPGSGVPGSGVPGSGVPGSGVPGSGVPGSGVPGSGVPGSGVPGSGVPGSGVPGSGVPGSGVPGSGVPGSGVPGSGVPGSGVPGSGVPGSGVPGSGVPGSGVPGSGVPGSGVPGSGVPGSGVPGSGVPGSGVPGSGVPGSGVPGSGVPGSGVPGSGVPGSGVPGSGVPGSGVPGSGVPGSGVPGSGVPGSGVPGSGVPGSGVPGSGVPGSGVPGSGVPGSGVPGSGVPGSGVPGSGVPGSGVPGSGVPGSGVPGSGVPGSGVPGSGVPGSGVPGSGVPGSGVPGSGVPGSGVPGSGVP
[1]; Table 5, 10 μM in PBS, 15 °C
  Nagg: 244
  Rg(nm): 27.5 nm
  Rh (nm): 43.5 nm
[1]; Table 5
  ρ: 0.6

B2: RLP60-ELP80: RLP-ELP block co-polypeptide, 60 core and 80 corona repeats (protein)
chain: QYPSDGRGQYPSDGRGQYPSDGRGQYPSDGRGQYPSDGRGQYPSDGRGQYPSDGRGQYPSDGRGQYPSDGRGQYPSDGRGQYPSDGRGQYPSDGRGQYPSDGRGQYPSDGRGQYPSDGRGQYPSDGRGQYPSDGRGQYPSDGRGQYPSDGRGQYPSDGRGQYPSDGRGQYPSDGRGQYPSDGRGQYPSDGRGQYPSDGRGQYPSDGRGQYPSDGRGQYPSDGRGQYPSDGRGQYPSDGRGQYPSDGRGQYPSDGRGQYPSDGRGQYPSDGRGQYPSDGRGQYPSDGRGQYPSDGRGQYPSDGRGQYPSDGRGQYPSDGRGQYPSDGRGQYPSDGRGQYPSDGRGQYPSDGRGQYPSDGRGQYPSDGRGQYPSDGRGQYPSDGRGQYPSDGRGQYPSDGRGQYPSDGRGQYPSDGRGQYPSDGRGQYPSDGRGQYPSDGRGQYPSDGRGQYPSDGRGQYPSDGRGQYPSDGRGQYPSDGRGGAGVPGGGVPGAGVPGGGVPGAGVPGGGVPGAGVPGGGVPGAGVPGGGVPGAGVPGGGVPGAGVPGGGVPGAGVPGGGVPGAGVPGGGVPGAGVPGGGVPGAGVPGGGVPGAGVPGGGVPGAGVPGGGVPGAGVPGGGVPGAGVPGGGVPGAGVPGGGVPGAGVPGGGVPGAGVPGGGVPGAGVPGGGVPGAGVPGGGVPGAGVPGGGVPGAGVPGGGVPGAGVPGGGVPGAGVPGGGVPGAGVPGGGVPGAGVPGGGVPGAGVPGGGVPGAGVPGGGVPGAGVPGGGVPGAGVPGGGVPGAGVPGGGVPGAGVPGGGVPGAGVPGGGVPGAGVPGGGVPGAGVPGGGVPGAGVPGGGVPGAGVPGGGVPGAGVPGGGVPGAGVPGGGVPGAGVPGGGVP
[1]; Table 1, 10 μM in PBS, 15 °C
  Nagg: 231
  Rg(nm): 23.8 nm
  Rh (nm): 36.7 nm
[1]; Table 1
  ρ: 0.65
[2]
  core radius (cryo-TEM): ~17.5 nm
  spacing between particle cores (cryo-TEM): 29.5 nm
[2]; Table 2, inter-core spacing, mean ± standard deviation
  Spacing (nm): 28.9 ± 5.1 nm
[2]; Table 2, mean ± standard deviation, 10 μM in 140 mM PBS
  Core radius (nm): 17.5 ± 2.7 nm

B3: RLP60-ELPV80: RLP-ELP block co-polypeptide with Val guest residue in the corona (protein)
chain: QYPSDGRGQYPSDGRGQYPSDGRGQYPSDGRGQYPSDGRGQYPSDGRGQYPSDGRGQYPSDGRGQYPSDGRGQYPSDGRGQYPSDGRGQYPSDGRGQYPSDGRGQYPSDGRGQYPSDGRGQYPSDGRGQYPSDGRGQYPSDGRGQYPSDGRGQYPSDGRGQYPSDGRGQYPSDGRGQYPSDGRGQYPSDGRGQYPSDGRGQYPSDGRGQYPSDGRGQYPSDGRGQYPSDGRGQYPSDGRGQYPSDGRGQYPSDGRGQYPSDGRGQYPSDGRGQYPSDGRGQYPSDGRGQYPSDGRGQYPSDGRGQYPSDGRGQYPSDGRGQYPSDGRGQYPSDGRGQYPSDGRGQYPSDGRGQYPSDGRGQYPSDGRGQYPSDGRGQYPSDGRGQYPSDGRGQYPSDGRGQYPSDGRGQYPSDGRGQYPSDGRGQYPSDGRGQYPSDGRGQYPSDGRGQYPSDGRGQYPSDGRGQYPSDGRGQYPSDGRGGVGVPGVGVPGVGVPGVGVPGVGVPGVGVPGVGVPGVGVPGVGVPGVGVPGVGVPGVGVPGVGVPGVGVPGVGVPGVGVPGVGVPGVGVPGVGVPGVGVPGVGVPGVGVPGVGVPGVGVPGVGVPGVGVPGVGVPGVGVPGVGVPGVGVPGVGVPGVGVPGVGVPGVGVPGVGVPGVGVPGVGVPGVGVPGVGVPGVGVPGVGVPGVGVPGVGVPGVGVPGVGVPGVGVPGVGVPGVGVPGVGVPGVGVPGVGVPGVGVPGVGVPGVGVPGVGVPGVGVPGVGVPGVGVPGVGVPGVGVPGVGVPGVGVPGVGVPGVGVPGVGVPGVGVPGVGVPGVGVPGVGVPGVGVPGVGVPGVGVPGVGVPGVGVPGVGVPGVGVPGVGVPGVGVPGVGVPGVGVP
[1]; Table 5, 10 μM in PBS, 15 °C
  Nagg: 565
  Rg(nm): 41.3 nm
  Rh (nm): 39.4 nm
[1]; Table 5
  ρ: 1.0

B4: RLP20-ELP40: RLP-ELP block co-polypeptide, (QYPSDGRG)20-(VPG[A:G]G)40 (protein)
chain: QYPSDGRGQYPSDGRGQYPSDGRGQYPSDGRGQYPSDGRGQYPSDGRGQYPSDGRGQYPSDGRGQYPSDGRGQYPSDGRGQYPSDGRGQYPSDGRGQYPSDGRGQYPSDGRGQYPSDGRGQYPSDGRGQYPSDGRGQYPSDGRGQYPSDGRGQYPSDGRGGAGVPGGGVPGAGVPGGGVPGAGVPGGGVPGAGVPGGGVPGAGVPGGGVPGAGVPGGGVPGAGVPGGGVPGAGVPGGGVPGAGVPGGGVPGAGVPGGGVPGAGVPGGGVPGAGVPGGGVPGAGVPGGGVPGAGVPGGGVPGAGVPGGGVPGAGVPGGGVPGAGVPGGGVPGAGVPGGGVPGAGVPGGGVPGAGVPGGGVP
[1]
  hydrodynamic radius (Rh): 5.3 nm
[1]; Table 3, 10 μM in PBS, 15 °C
  Rh (nm): 5.3 nm

B5: [S]-80-[NHQ]-40: block co-polypeptide of two UCST blocks, (GRGDSPYS)80-(GRGDNPHQ)40 (protein)
chain: GRGDSPYSGRGDSPYSGRGDSPYSGRGDSPYSGRGDSPYSGRGDSPYSGRGDSPYSGRGDSPYSGRGDSPYSGRGDSPYSGRGDSPYSGRGDSPYSGRGDSPYSGRGDSPYSGRGDSPYSGRGDSPYSGRGDSPYSGRGDSPYSGRGDSPYSGRGDSPYSGRGDSPYSGRGDSPYSGRGDSPYSGRGDSPYSGRGDSPYSGRGDSPYSGRGDSPYSGRGDSPYSGRGDSPYSGRGDSPYSGRGDSPYSGRGDSPYSGRGDSPYSGRGDSPYSGRGDSPYSGRGDSPYSGRGDSPYSGRGDSPYSGRGDSPYSGRGDSPYSGRGDSPYSGRGDSPYSGRGDSPYSGRGDSPYSGRGDSPYSGRGDSPYSGRGDSPYSGRGDSPYSGRGDSPYSGRGDSPYSGRGDSPYSGRGDSPYSGRGDSPYSGRGDSPYSGRGDSPYSGRGDSPYSGRGDSPYSGRGDSPYSGRGDSPYSGRGDSPYSGRGDSPYSGRGDSPYSGRGDSPYSGRGDSPYSGRGDSPYSGRGDSPYSGRGDSPYSGRGDSPYSGRGDSPYSGRGDSPYSGRGDSPYSGRGDSPYSGRGDSPYSGRGDSPYSGRGDSPYSGRGDSPYSGRGDSPYSGRGDSPYSGRGDSPYSGRGDSPYSGRGDNPHQGRGDNPHQGRGDNPHQGRGDNPHQGRGDNPHQGRGDNPHQGRGDNPHQGRGDNPHQGRGDNPHQGRGDNPHQGRGDNPHQGRGDNPHQGRGDNPHQGRGDNPHQGRGDNPHQGRGDNPHQGRGDNPHQGRGDNPHQGRGDNPHQGRGDNPHQGRGDNPHQGRGDNPHQGRGDNPHQGRGDNPHQGRGDNPHQGRGDNPHQGRGDNPHQGRGDNPHQGRGDNPHQGRGDNPHQGRGDNPHQGRGDNPHQGRGDNPHQGRGDNPHQGRGDNPHQGRGDNPHQGRGDNPHQGRGDNPHQGRGDNPHQGRGDNPHQ
[1]; Table 9, UCST-UCST block co-polypeptides
  Rh (nm): 7.0 nm
